B1: CIgG4B1A2(G4S)1 (Fc fusion)
chain 1: GPPCPPCPAPEFLGGPSVFLFPPKPKDTLMISRTPEVTCVVVDVSQEDPEVQFNWYVDGVEVHNAKTKPREEQFNSTYRVVSVLTVLHQDWLNGKEYKCKVSNKGLPSSIEKTISKAKGQPREPQVYTLPPCQEEMTKNQVSLWCLVKGFYPSDIAVEWESNGQPENNYKTTPPVLDSDGSFFLYSRLTVDKSRWQEGNVFSCSVMHEALHNHYTQKSLSLSLGKGGGGSQVQLQESGGGLVQTGGSLRLSCAVHGRTFSNTGMGWFRQAPGNERQFVAIISPSGTSTYYADSVKGRFTISRDPAKNTVYLQMNSLKMDDTAVYYCAASYGSNWSTLRHQRRNEYDAWGQGTQVAVS
chain 2: GPPCPPCPAPEFLGGPSVFLFPPKPKDTLMISRTPEVTCVVVDVSQEDPEVQFNWYVDGVEVHNAKTKPREEQFNSTYRVVSVLTVLHQDWLNGKEYKCKVSNKGLPSSIEKTISKAKGQPREPQVCTLPPSQEEMTKNQVSLSCAVKGFYPSDIAVEWESNGQPENNYKTTPPVLDSDGSFFLVSRLTVDKSRWQEGNVFSCSVMHEALHNHYTQKSLSLSLGKGGGGSEVQLLESGGGLVQPGGSLRLSCAASGFRFGNYDMAWVRQAPGKRYEWVSSIDTGGDITHYADSVKGRFTISRDNAKNTLYLQMNSLRPEDTAEYWCATDEEYALGPNEFDYYGQGTLVTVS
B2: CIgG4B1A2(G4S)2 (Fc fusion)
chain 1: GPPCPPCPAPEFLGGPSVFLFPPKPKDTLMISRTPEVTCVVVDVSQEDPEVQFNWYVDGVEVHNAKTKPREEQFNSTYRVVSVLTVLHQDWLNGKEYKCKVSNKGLPSSIEKTISKAKGQPREPQVYTLPPCQEEMTKNQVSLWCLVKGFYPSDIAVEWESNGQPENNYKTTPPVLDSDGSFFLYSRLTVDKSRWQEGNVFSCSVMHEALHNHYTQKSLSLSLGKGGGGSGGGGSQVQLQESGGGLVQTGGSLRLSCAVHGRTFSNTGMGWFRQAPGNERQFVAIISPSGTSTYYADSVKGRFTISRDPAKNTVYLQMNSLKMDDTAVYYCAASYGSNWSTLRHQRRNEYDAWGQGTQVAVS
chain 2: GPPCPPCPAPEFLGGPSVFLFPPKPKDTLMISRTPEVTCVVVDVSQEDPEVQFNWYVDGVEVHNAKTKPREEQFNSTYRVVSVLTVLHQDWLNGKEYKCKVSNKGLPSSIEKTISKAKGQPREPQVCTLPPSQEEMTKNQVSLSCAVKGFYPSDIAVEWESNGQPENNYKTTPPVLDSDGSFFLVSRLTVDKSRWQEGNVFSCSVMHEALHNHYTQKSLSLSLGKGGGGSGGGGSEVQLLESGGGLVQPGGSLRLSCAASGFRFGNYDMAWVRQAPGKRYEWVSSIDTGGDITHYADSVKGRFTISRDNAKNTLYLQMNSLRPEDTAEYWCATDEEYALGPNEFDYYGQGTLVTVS
B3: CIgG4B1A2(G4S)3 (Fc fusion)
chain 1: GPPCPPCPAPEFLGGPSVFLFPPKPKDTLMISRTPEVTCVVVDVSQEDPEVQFNWYVDGVEVHNAKTKPREEQFNSTYRVVSVLTVLHQDWLNGKEYKCKVSNKGLPSSIEKTISKAKGQPREPQVYTLPPCQEEMTKNQVSLWCLVKGFYPSDIAVEWESNGQPENNYKTTPPVLDSDGSFFLYSRLTVDKSRWQEGNVFSCSVMHEALHNHYTQKSLSLSLGKGGGGSGGGGSGGGGSQVQLQESGGGLVQTGGSLRLSCAVHGRTFSNTGMGWFRQAPGNERQFVAIISPSGTSTYYADSVKGRFTISRDPAKNTVYLQMNSLKMDDTAVYYCAASYGSNWSTLRHQRRNEYDAWGQGTQVAVS
chain 2: GPPCPPCPAPEFLGGPSVFLFPPKPKDTLMISRTPEVTCVVVDVSQEDPEVQFNWYVDGVEVHNAKTKPREEQFNSTYRVVSVLTVLHQDWLNGKEYKCKVSNKGLPSSIEKTISKAKGQPREPQVCTLPPSQEEMTKNQVSLSCAVKGFYPSDIAVEWESNGQPENNYKTTPPVLDSDGSFFLVSRLTVDKSRWQEGNVFSCSVMHEALHNHYTQKSLSLSLGKGGGGSGGGGSGGGGSEVQLLESGGGLVQPGGSLRLSCAASGFRFGNYDMAWVRQAPGKRYEWVSSIDTGGDITHYADSVKGRFTISRDNAKNTLYLQMNSLRPEDTAEYWCATDEEYALGPNEFDYYGQGTLVTVS

biological target: mixture of three Der p 2 specific recombinant human IgE clones H10, H12, P4E (human) (UniProt P01854); experiment: RBL-SX38 IgE displacement, FACS
Sequence (P01854 other isoform, or with tags, fused parts or gaps): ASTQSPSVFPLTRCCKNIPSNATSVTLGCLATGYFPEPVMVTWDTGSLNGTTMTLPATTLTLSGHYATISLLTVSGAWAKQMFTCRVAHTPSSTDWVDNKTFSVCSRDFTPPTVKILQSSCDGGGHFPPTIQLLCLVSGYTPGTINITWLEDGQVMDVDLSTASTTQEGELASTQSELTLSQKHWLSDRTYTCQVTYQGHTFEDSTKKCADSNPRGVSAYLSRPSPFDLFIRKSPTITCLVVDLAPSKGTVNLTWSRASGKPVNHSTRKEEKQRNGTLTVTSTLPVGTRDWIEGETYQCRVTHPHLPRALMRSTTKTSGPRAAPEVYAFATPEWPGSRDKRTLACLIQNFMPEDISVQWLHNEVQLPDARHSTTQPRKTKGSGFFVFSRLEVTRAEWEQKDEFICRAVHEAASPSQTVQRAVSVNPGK

**Q.** What does the source list for B1?
**A.** EC50: 8.1 nM; Max effect/effect 1 µM: 100%

**Q.** How did the EC50 turn out when B2 was run?
**A.** Its EC50 is 6.1 nM.

**Q.** And the Max effect/effect 1 µM?
**A.** Its Max effect/effect 1 µM is 100%.

**Q.** With B3 as the binder, how does the EC50 read?
**A.** The EC50 was 5.3 nM.

**Q.** And the Max effect/effect 1 µM?
**A.** Its Max effect/effect 1 µM is 100%.

Source: patent publication US20250171562A1
